# Assay results published in the supplement of paper PMC10567573.
# B1: PSMB5 addE (peptide)
# chain: DGWIRVSSDNVADLHEKYSGSTPE
# B2: TRPA1 addE (peptide)
# chain: EQRNSRWNTVLRAVKAKTHHLEPE
# B3: SNF8 addE (peptide)
# chain: LPALFTDLYSQEITAEEAREALPE
# B4: POLD2 addE (peptide)
# chain: CQPISFSGFGAEDDDLGGLGLGPE
# B5: BEX2 addE (peptide)
# chain: HSLRAVSTDPPHHDHHDEFCLMPE
# Test: protein stability index of a GFP-peptide fusion (GPS, HEK-293T) (PSI 1-6); higher = more stable
# Conditions: c terminus: native
# 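Note: lentivirally expressed fusion library, cells FACS-sorted into six equal-sized GFP/DsRed ratio bins, PSI computed from sequencing read fractions per bin weighted by bin number.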
protein,measurement,setting,value
B1,protein stability index,parent: NP_002788.1,4
B2,protein stability index,parent: NP_015628.1,4.66
B3,protein stability index,parent: NP_009172.2,5.12
B4,protein stability index,parent: NP_006221.1,2.57
B5,protein stability index,parent: NP_116010.1,4.74
